The source of these data is article doi:10.1101/2020.07.24.219675.

This test has as its target sapC-PUMA (protein chimera of saposin C and the BH3 domain of PUMA). Description: NMR titration.

pKd: −log10 of the molar value.

As usually defined, the pKd is the negative decadic logarithm of the Kd, by convention in mol/L. Lower therefore signals a large Kd. In general, koff refers to the rate constant with which the complex falls apart. Read a high koff as a short-lived complex. As usually defined, the stoichiometry N is the number of molecules, sites or subunits per partner or assembly.

“Bcl-xL-ΔTM (Bcl-xL without the transmembrane domain) (domain or fragment)” showed a pKd above 6.51, a koff below 310 s⁻¹ and a stoichiometry N of 1.
